Experimental data taken from the RNAGym collection of RNA variant scans (doi:10.1093/molbev/msab373).

B1: Azoarcus group I ribozyme (parent)
chain: GUGCCUUGCGCCGGGAAACCACGCAAGGGAUGGUGUCAAAUUCGGCGAAACCUAAGCGCCCGCCCGGGCGUAUGGCAACGCCGAGCCAAGCUUCGGCGCCUGCGCCGAUGAAGGUGUAGAGACUAGACGGCACCCACCUAAGGCAAACGCUAUGGUGAAGGCAUAGUCCAGGGAGUGGCGAAAGUCACACAAACCGG

Variants of: B1
Assay: reverse-splicing fitness (ratio to wild type); higher = more active; in vitro selection; Mg2+ level not given
Method in brief: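 An in vitro group I ribozyme library with randomized positions was T7-transcribed and gel-purified. In triplicate, 10 pmol RNA in EPPS pH 7.5 was reacted with 50 pmoles of a 30-nt RNA substrate for 1 h at 37 °C across several added MgCl2 levels (1–48 mM), then stopped with EDTA. Products were reverse transcribed from a substrate-complementary primer, PCR-amplified and sequenced (HiSeq 4000). Fitness is a variant's read proportion after selection over that before, normalised to wild type.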

Variant | reverse-splicing fitness
GUGCCUUGCGCCGGGAAACCACGCAAGGGAUGGUGUCAAAUUCGGCGAAACCUAAGCGCCCGCCCGGGCGUAUGGCAACGCUGAGCCAAGCUUCGGCGCCUGCGCCGAUGUAGGUGUAGUGACUAGACGGCACCCACCUAAGGCAAACGCUAUGGUGAAGGCAUAGUCCAGGGAGGGGCGAAAGUCACACAAACCGG [C82U A111U A120U U176G] | 0.00321
GUGCCUUGCGCCGGGAAACCACGCAAGGGAUGGUGUCAAAUUCGGCGAAACCUAAGCGCCCGCCCGGGCGUAUGGCAACGCUGAGCCAAGCUUCGGCGCCUGCGCCGAUGUAGGUGUAGUGACUAGACGGCACCCACCUAAGGCAAACGCUAUGGUGAAGGCAUAGUCCAGGGAGCGGCGAAAGUCACACAAACCGG [C82U A111U A120U U176C] | 0.0117
GUGCCUUGCGCCGGGAAACCACGCAAGGGAUGGUGUCAAAUUCGGCGAAACCUAAGCGCCCGCCCGGGCGUAUGGCAACGCUGAGCCAAGCUUCGGCGCCUGCGCCGAUGUAGGUGUAGAGACUAGACGGCACCCACCUAAGGCCAACGGUAUGGUGAAGGCAUAGUCAAGGGAGUGGCGAAAGUCACACAAACCGG [C82U A111U A145C C150G C169A] | 0.00853
GUGCCUUGCGCCGGGAAACCACGCAAGGGAUGGUGUCAAAUUCGGCGAAACCUAAGCGCCCGCCCGGGCGUAUGGCAACGCUGAGCCAAGCUUCGGCGCCUGCGCCGAUGUAGGUGUAGAGACUAGACGGCACCCACCUAAGGCCAACGAUAUGGUGAAGGCAUAGUCCAGGGAGAGGCGAAAGUCACACAAACCGG [C82U A111U A145C C150A U176A] | 0.0116
GUGCCUUGCGCCGGGAAACCACGCAAGGGAUGGUGUCAAAUUCGGCGAAACCUAAGCGCCCGCCCGGGCGUAUGGCAACGCUGAGCCAAGCUUCGGCGCCUGCGCCGAUGUAGGUGUAGAGACUAGACGGCACCCACCUAAGGCCAACGAUAUGGUGAAGGCAUAGUCCAGGGAGGGGCGAAAGUCACACAAACCGG [C82U A111U A145C C150A U176G] | 0.00625
GUGCCUUGCGCCGGGAAACCACGCAAGGGAUGGUGUCAAAUUCGGCGAAACCUAAGCGCCCGCCCGGGCGUAUGGCAACGCUGAGCCAAGCUUCGGCGCCUGCGCCGAUGUAGGUGUAGAGACUAGACGGCACCCACCUAAGGCCAACGAUAUGGUGAAGGCAUAGUCCAGGGAGCGGCGAAAGUCACACAAACCGG [C82U A111U A145C C150A U176C] | 0.013
GUGCCUUGCGCCGGGAAACCACGCAAGGGAUGGUGUCAAAUUCGGCGAAACCUAAGCGCCCGCCCGGGCGUAUGGCAACGCUGAGCCAAGCUUCGGCGCCUGCGCCGAUGUAGGUGUAGAGACUAGACGGCACCCACCUAAGGCCAACGCUAUGGUGAAGGCAUAGUCCAGGGAGUGGCGAAAGUCACACAAACCGG [C82U A111U A145C] | 0.295
GUGCCUUGCGCCGGGAAACCACGCAAGGGAUGGUGUCAAAUUCGGCGAAACCUAAGCGCCCGCCCGGGCGUAUGGCAACGCUGAGCCAAGCUUCGGCGCCUGCGCCGAUGUAGGUGUAGUGACUAGACGGCACCCACCUAAGGCAAACGCUAUGGUGAAGGCAUAGUCGAGGGAGUGGCGAAAGUCACACAAACCGG [C82U A111U A120U C169G] | 0.00397
GUGCCUUGCGCCGGGAAACCACGCAAGGGAUGGUGUCAAAUUCGGCGAAACCUAAGCGCCCGCCCGGGCGUAUGGCAACGCUGAGCCAAGCUUCGGCGCCUGCGCCGAUGUAGGUGUAGUGACUAGACGGCACCCACCUAAGGCAAACGCUAUGGUGAAGGCAUAGUCUAGGGAGUGGCGAAAGUCACACAAACCGG [C82U A111U A120U C169U] | 0.00477
GUGCCUUGCGCCGGGAAACCACGCAAGGGAUGGUGUCAAAUUCGGCGAAACCUAAGCGCCCGCCCGGGCGUAUGGCAACGCUGAGCCAAGCUUCGGCGCCUGCGCCGAUGUAGGUGUAGAGACUAGACGGCACCCACCUAAGGCCAACGAUAUGGUGAAGGCAUAGUCAAGGGAGUGGCGAAAGUCACACAAACCGG [C82U A111U A145C C150A C169A] | 0.00809
GUGCCUUGCGCCGGGAAACCACGCAAGGGAUGGUGUCAAAUUCGGCGAAACCUAAGCGCCCGCCCGGGCGUAUGGCAACGCUGAGCCAAGCUUCGGCGCCUGCGCCGAUGUAGGUGUAGAGACUAGACGGCACCCACCUAAGGCCAACGAUAUGGUGAAGGCAUAGUCGAGGGAGUGGCGAAAGUCACACAAACCGG [C82U A111U A145C C150A C169G] | 0.00741
GUGCCUUGCGCCGGGAAACCACGCAAGGGAUGGUGUCAAAUUCGGCGAAACCUAAGCGCCCGCCCGGGCGUAUGGCAACGCUGAGCCAAGCUUCGGCGCCUGCGCCGAUGUAGGUGUAGAGACUAGACGGCACCCACCUAAGGCCAACGAUAUGGUGAAGGCAUAGUCUAGGGAGUGGCGAAAGUCACACAAACCGG [C82U A111U A145C C150A C169U] | 0.00873
GUGCCUUGCGCCGGGAAACCACGCAAGGGAUGGUGUCAAAUUCGGCGAAACCUAAGCGCCCGCCCGGGCGUAUGGCAACGCUGAGCCAAGCUUCGGCGCCUGCGCCGAUGUAGGUGUAGAGACUAGACGGCACCCACCUAAGGCCAACGAUAUGGUGAAGGCAUAGUCUAGGGAGCGGCGAAAGUCACACAAACCGG [C82U A111U A145C C150A C169U U176C] | 0.00882
GUGCCUUGCGCCGGGAAACCACGCAAGGGAUGGUGUCAAAUUCGGCGAAACCUAAGCGCCCGCCCGGGCGUAUGGCAACGCUGAGCCAAGCUUCGGCGCCUGCGCCGAUGUAGGUGUAGAGACUAGACGGCACCCACCUAAGGCCAACGAUAUGGUGAAGGCAUAGUCUAGGGAGGGGCGAAAGUCACACAAACCGG [C82U A111U A145C C150A C169U U176G] | 0.00574
GUGCCUUGCGCCGGGAAACCACGCAAGGGAUGGUGUCAAAUUCGGCGAAACCUAAGCGCCCGCCCGGGCGUAUGGCAACGCUGAGCCAAGCUUCGGCGCCUGCGCCGAUGUAGGUGUAGAGACUAGACGGCACCCACCUAAGGCCAACGAUAUGGUGAAGGCAUAGUCUAGGGAGAGGCGAAAGUCACACAAACCGG [C82U A111U A145C C150A C169U U176A] | 0.0138
